{"source": "the supplement of paper PMC10567573", "parents": {"B1": {"name": "ALDH8A1 (parent)", "chain": "WSSRSPQERSRVLNQVADLLEQSL"}, "B2": {"name": "FAM164A (parent)", "chain": "YDPDYIQCPYCQRRFNENAADRHI"}}}
{"variants_of": "B1", "test": "protein stability index of a GFP-peptide fusion (GPS, HEK-293T) (PSI 1-6); higher = more stable", "conditions": "c terminus: a fixed tail appended"}
{"variant": "WSSRSPQERSRVLNQVADLLEQSK", "note": "[L24K]", "protein stability index": 3.94}
{"variant": "WSSRSPQERSRVLNQVADLLEQSM", "note": "[L24M]", "protein stability index": 2.86}
{"variant": "WSSRSPQERSRVLNQVADLLEQSN", "note": "[L24N]", "protein stability index": 2.96}
{"variant": "WSSRSPQERSRVLNQVADLLEQSP", "note": "[L24P]", "protein stability index": 4.16}
{"variant": "WSSRSPQERSRVLNQVADLLEQSQ", "note": "[L24Q]", "protein stability index": 3.4}
{"variant": "WSSRSPQERSRVLNQVADLLEQSR", "note": "[L24R]", "protein stability index": 3.49}
{"variant": "WSSRSPQERSRVLNQVADLLEQSS", "note": "[L24S]", "protein stability index": 3.61}
{"variant": "WSSRSPQERSRVLNQVADLLEQST", "note": "[L24T]", "protein stability index": 3.34}
{"variant": "WSSRSPQERSRVLNQVADLLEQSV", "note": "[L24V]", "protein stability index": 2.29}
{"variant": "WSSRSPQERSRVLNQVADLLEQSW", "note": "[L24W]", "protein stability index": 2.19}
{"variant": "WSSRSPQERSRVLNQVADLLEQSY", "note": "[L24Y]", "protein stability index": 1.86}
{"variants_of": "B2", "test": "protein stability index of a GFP-peptide fusion (GPS, HEK-293T) (PSI 1-6); higher = more stable", "conditions": "c terminus: a fixed tail appended"}
{"variant": "ADPDYIQCPYCQRRFNENAADRHI", "note": "[Y1A]", "protein stability index": 4.73}
{"variant": "CDPDYIQCPYCQRRFNENAADRHI", "note": "[Y1C]", "protein stability index": 3.69}
{"variant": "DDPDYIQCPYCQRRFNENAADRHI", "note": "[Y1D]", "protein stability index": 4.86}
{"variant": "EDPDYIQCPYCQRRFNENAADRHI", "note": "[Y1E]", "protein stability index": 5.12}
{"variant": "FDPDYIQCPYCQRRFNENAADRHI", "note": "[Y1F]", "protein stability index": 3.42}
{"variant": "GDPDYIQCPYCQRRFNENAADRHI", "note": "[Y1G]", "protein stability index": 4.17}
{"variant": "HDPDYIQCPYCQRRFNENAADRHI", "note": "[Y1H]", "protein stability index": 4.29}
{"variant": "IDPDYIQCPYCQRRFNENAADRHI", "note": "[Y1I]", "protein stability index": 4.72}
{"variant": "KDPDYIQCPYCQRRFNENAADRHI", "note": "[Y1K]", "protein stability index": 4.41}
{"variant": "LDPDYIQCPYCQRRFNENAADRHI", "note": "[Y1L]", "protein stability index": 4.6}
{"variant": "MDPDYIQCPYCQRRFNENAADRHI", "note": "[Y1M]", "protein stability index": 4.24}
{"variant": "NDPDYIQCPYCQRRFNENAADRHI", "note": "[Y1N]", "protein stability index": 4.45}
{"variant": "PDPDYIQCPYCQRRFNENAADRHI", "note": "[Y1P]", "protein stability index": 4.54}
{"variant": "QDPDYIQCPYCQRRFNENAADRHI", "note": "[Y1Q]", "protein stability index": 4.55}
{"variant": "RDPDYIQCPYCQRRFNENAADRHI", "note": "[Y1R]", "protein stability index": 3.98}
{"variant": "SDPDYIQCPYCQRRFNENAADRHI", "note": "[Y1S]", "protein stability index": 4.54}
{"variant": "TDPDYIQCPYCQRRFNENAADRHI", "note": "[Y1T]", "protein stability index": 4.79}
{"variant": "VDPDYIQCPYCQRRFNENAADRHI", "note": "[Y1V]", "protein stability index": 4.4}
{"variant": "WDPDYIQCPYCQRRFNENAADRHI", "note": "[Y1W]", "protein stability index": 4.69}
{"variant": "YAPDYIQCPYCQRRFNENAADRHI", "note": "[D2A]", "protein stability index": 2.46}
{"variant": "YCPDYIQCPYCQRRFNENAADRHI", "note": "[D2C]", "protein stability index": 2.33}
{"variant": "YEPDYIQCPYCQRRFNENAADRHI", "note": "[D2E]", "protein stability index": 4.93}
{"variant": "YFPDYIQCPYCQRRFNENAADRHI", "note": "[D2F]", "protein stability index": 3.52}
{"variant": "YGPDYIQCPYCQRRFNENAADRHI", "note": "[D2G]", "protein stability index": 3.96}
{"variant": "YHPDYIQCPYCQRRFNENAADRHI", "note": "[D2H]", "protein stability index": 2.78}
{"variant": "YIPDYIQCPYCQRRFNENAADRHI", "note": "[D2I]", "protein stability index": 2.38}
{"variant": "YKPDYIQCPYCQRRFNENAADRHI", "note": "[D2K]", "protein stability index": 4.37}
{"variant": "YLPDYIQCPYCQRRFNENAADRHI", "note": "[D2L]", "protein stability index": 2.69}
{"variant": "YMPDYIQCPYCQRRFNENAADRHI", "note": "[D2M]", "protein stability index": 3.49}
{"variant": "YNPDYIQCPYCQRRFNENAADRHI", "note": "[D2N]", "protein stability index": 4.26}
{"variant": "YPPDYIQCPYCQRRFNENAADRHI", "note": "[D2P]", "protein stability index": 3.64}
{"variant": "YQPDYIQCPYCQRRFNENAADRHI", "note": "[D2Q]", "protein stability index": 3.55}
{"variant": "YRPDYIQCPYCQRRFNENAADRHI", "note": "[D2R]", "protein stability index": 4.07}
{"variant": "YSPDYIQCPYCQRRFNENAADRHI", "note": "[D2S]", "protein stability index": 2.59}
{"variant": "YTPDYIQCPYCQRRFNENAADRHI", "note": "[D2T]", "protein stability index": 2.33}
{"variant": "YVPDYIQCPYCQRRFNENAADRHI", "note": "[D2V]", "protein stability index": 2.37}
{"variant": "YWPDYIQCPYCQRRFNENAADRHI", "note": "[D2W]", "protein stability index": 3.42}
{"variant": "YYPDYIQCPYCQRRFNENAADRHI", "note": "[D2Y]", "protein stability index": 3.71}
{"variant": "YDADYIQCPYCQRRFNENAADRHI", "note": "[P3A]", "protein stability index": 4.57}
{"variant": "YDCDYIQCPYCQRRFNENAADRHI", "note": "[P3C]", "protein stability index": 3.49}
{"variant": "YDDDYIQCPYCQRRFNENAADRHI", "note": "[P3D]", "protein stability index": 4.01}
{"variant": "YDEDYIQCPYCQRRFNENAADRHI", "note": "[P3E]", "protein stability index": 4.63}
{"variant": "YDFDYIQCPYCQRRFNENAADRHI", "note": "[P3F]", "protein stability index": 4.02}
{"variant": "YDGDYIQCPYCQRRFNENAADRHI", "note": "[P3G]", "protein stability index": 4.67}
{"variant": "YDHDYIQCPYCQRRFNENAADRHI", "note": "[P3H]", "protein stability index": 3.81}
{"variant": "YDIDYIQCPYCQRRFNENAADRHI", "note": "[P3I]", "protein stability index": 3.99}
{"variant": "YDKDYIQCPYCQRRFNENAADRHI", "note": "[P3K]", "protein stability index": 4.63}
{"variant": "YDLDYIQCPYCQRRFNENAADRHI", "note": "[P3L]", "protein stability index": 3.55}
{"variant": "YDMDYIQCPYCQRRFNENAADRHI", "note": "[P3M]", "protein stability index": 4.4}
{"variant": "YDNDYIQCPYCQRRFNENAADRHI", "note": "[P3N]", "protein stability index": 4.46}
{"variant": "YDQDYIQCPYCQRRFNENAADRHI", "note": "[P3Q]", "protein stability index": 3.86}
{"variant": "YDRDYIQCPYCQRRFNENAADRHI", "note": "[P3R]", "protein stability index": 4.49}
{"variant": "YDSDYIQCPYCQRRFNENAADRHI", "note": "[P3S]", "protein stability index": 4.39}
{"variant": "YDTDYIQCPYCQRRFNENAADRHI", "note": "[P3T]", "protein stability index": 4.65}
{"variant": "YDVDYIQCPYCQRRFNENAADRHI", "note": "[P3V]", "protein stability index": 4.25}
{"variant": "YDWDYIQCPYCQRRFNENAADRHI", "note": "[P3W]", "protein stability index": 3.5}
{"variant": "YDYDYIQCPYCQRRFNENAADRHI", "note": "[P3Y]", "protein stability index": 4.24}
{"variant": "YDPAYIQCPYCQRRFNENAADRHI", "note": "[D4A]", "protein stability index": 4.26}
{"variant": "YDPCYIQCPYCQRRFNENAADRHI", "note": "[D4C]", "protein stability index": 3.48}
{"variant": "YDPEYIQCPYCQRRFNENAADRHI", "note": "[D4E]", "protein stability index": 4.21}
{"variant": "YDPFYIQCPYCQRRFNENAADRHI", "note": "[D4F]", "protein stability index": 3.72}
{"variant": "YDPGYIQCPYCQRRFNENAADRHI", "note": "[D4G]", "protein stability index": 4.28}
{"variant": "YDPHYIQCPYCQRRFNENAADRHI", "note": "[D4H]", "protein stability index": 4.5}
{"variant": "YDPIYIQCPYCQRRFNENAADRHI", "note": "[D4I]", "protein stability index": 4.5}
{"variant": "YDPKYIQCPYCQRRFNENAADRHI", "note": "[D4K]", "protein stability index": 4.11}
{"variant": "YDPLYIQCPYCQRRFNENAADRHI", "note": "[D4L]", "protein stability index": 3.59}
{"variant": "YDPMYIQCPYCQRRFNENAADRHI", "note": "[D4M]", "protein stability index": 3.8}
{"variant": "YDPNYIQCPYCQRRFNENAADRHI", "note": "[D4N]", "protein stability index": 4.22}
{"variant": "YDPPYIQCPYCQRRFNENAADRHI", "note": "[D4P]", "protein stability index": 4.08}
{"variant": "YDPQYIQCPYCQRRFNENAADRHI", "note": "[D4Q]", "protein stability index": 4.42}
{"variant": "YDPRYIQCPYCQRRFNENAADRHI", "note": "[D4R]", "protein stability index": 3.53}
{"variant": "YDPSYIQCPYCQRRFNENAADRHI", "note": "[D4S]", "protein stability index": 4.49}
{"variant": "YDPTYIQCPYCQRRFNENAADRHI", "note": "[D4T]", "protein stability index": 4.08}
{"variant": "YDPVYIQCPYCQRRFNENAADRHI", "note": "[D4V]", "protein stability index": 3.84}
{"variant": "YDPWYIQCPYCQRRFNENAADRHI", "note": "[D4W]", "protein stability index": 3.5}
{"variant": "YDPYYIQCPYCQRRFNENAADRHI", "note": "[D4Y]", "protein stability index": 3.59}
{"variant": "YDPDAIQCPYCQRRFNENAADRHI", "note": "[Y5A]", "protein stability index": 4.05}
{"variant": "YDPDCIQCPYCQRRFNENAADRHI", "note": "[Y5C]", "protein stability index": 4.01}
{"variant": "YDPDDIQCPYCQRRFNENAADRHI", "note": "[Y5D]", "protein stability index": 4.24}
{"variant": "YDPDEIQCPYCQRRFNENAADRHI", "note": "[Y5E]", "protein stability index": 4.57}
{"variant": "YDPDFIQCPYCQRRFNENAADRHI", "note": "[Y5F]", "protein stability index": 4.07}
{"variant": "YDPDGIQCPYCQRRFNENAADRHI", "note": "[Y5G]", "protein stability index": 4.14}
{"variant": "YDPDHIQCPYCQRRFNENAADRHI", "note": "[Y5H]", "protein stability index": 3.69}
